In IntAct's records for PubMed 9867828:

B1: Protein S100-A9 (Homo sapiens), P06702 (parent)
chain: MTCKMSQLERNIETIINTFHQYSVKLGHPDTLNQGEFKELVRKDLQNFLKKENKNEKVIEHIMEDLDTNADKQLSFEEFIMLMARLTWASHEKMHEGDEGPGHHHKPGLGEGTP
partner: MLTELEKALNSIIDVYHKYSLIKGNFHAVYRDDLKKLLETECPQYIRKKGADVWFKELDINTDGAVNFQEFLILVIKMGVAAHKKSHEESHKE

Variants of: B1
Conditions: with S100A8, P05109

| Variant | effect of a mutation on the interaction |
| --- | --- |
| C3S | decreasing interaction |
